Assay results from publication PMC5581337.

Biological target: HA-NRX2αS1(+) S2(+) S3(+) S4(−) (extracellularly HA-tagged neurexin2α without the insert at splice site 4) (mouse) (UniProt E9Q7X7)
Test: cell surface binding assay; Scatchard plot analysis of IgSF21-Fc bound to COS-7 cells expressing HA-NRX2αS4(-), n = 30 cells

- Kd: 21 nM
Substance: IgSF21-Fc (ectodomain of rat IgSF21 fused to the human immunoglobulin Fc region) (from UniProt M0RAS4 25-448) (Fc fusion)
